Where a chain is given by its changes, count along the chain named. Ends that are not written are not given here.

The target in assay [1] is T1, human ASIC1a F302A (human) (UniProt P78348).
T1 sequence: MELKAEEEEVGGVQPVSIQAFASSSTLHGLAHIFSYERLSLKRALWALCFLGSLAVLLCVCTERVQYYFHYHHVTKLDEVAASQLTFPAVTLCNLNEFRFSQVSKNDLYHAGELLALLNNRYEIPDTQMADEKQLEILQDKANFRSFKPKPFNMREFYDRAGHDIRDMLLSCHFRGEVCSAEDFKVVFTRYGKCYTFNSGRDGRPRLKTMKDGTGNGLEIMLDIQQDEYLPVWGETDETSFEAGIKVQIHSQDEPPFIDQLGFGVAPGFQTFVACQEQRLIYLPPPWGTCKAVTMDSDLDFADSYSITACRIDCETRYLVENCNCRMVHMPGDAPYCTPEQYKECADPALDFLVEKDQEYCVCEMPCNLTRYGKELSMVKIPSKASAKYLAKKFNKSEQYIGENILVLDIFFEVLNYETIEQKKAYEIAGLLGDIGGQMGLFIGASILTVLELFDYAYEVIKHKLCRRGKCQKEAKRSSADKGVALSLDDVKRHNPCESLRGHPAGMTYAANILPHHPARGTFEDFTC

Assay [2] concerns the target T2, human acid-sensing ion channel 1a, wild type (human) (UniProt P78348).
T2 sequence: T1 sequence with A302F

The target in assay [3] is T3, human ASIC1a N416C (human) (UniProt P78348).
T3 sequence: T1 sequence with A302F, N416C

The target of assay [4] is T2, human acid-sensing ion channel 1a, wild type (human). The source holds these as a separate data set.

Consider FRRF-NH2 [FRRFa (Phe-Arg-Arg-Phe-amide)], for which, in assay [1], the EC50 of the FRRFa-mediated sustained current induction, two-electrode voltage-clamp is 11 µM. This molecule had a koff from the time course of disappearance of the FRRFa-induced sustained current, WT in the direct comparison with N416C in assay [2] of 0.029. Further, in assay [3], the EC50 of FRRFa for the I (sust)/I (peak) ratio increase at pH5, two-electrode voltage-clamp was found to be 6 μM and the koff from the time course of disappearance of the FRRFa-induced sustained current after washout of 50 μM FRRFa worked out at 0.027 s⁻¹. Also, in assay [4], the EC50 of the induction of a sustained current (I (sust)/I (peak) at pH5) by FRRFa, two-electrode voltage-clamp, Xenopus oocytes stood at 37 μM; the association rate constant kon from the time course of appearance of the sustained current fraction with 50 μM FRRFa pre-applied at pH7.4, two-electrode voltage-clamp was 162 s^−1 M^−1; the rate of disappearance of the sustained current after a 50-s incubation with 50 μM FRRFa (rate of unbinding), two-electrode voltage-clamp amounted to 0.025 s⁻¹.
